This note sets out measurements from US20060281090A1 (University of Washington, published 2006).

In assay [1] the target is recombinant human coagulation factor IX (human) (UniProt P00740). Description: cell-based or functional assay.
Assay [2] deals with T1, recombinant human coagulation factor IX (human, UniProt P00740 47-461).
T1 construct: also called FIX; human FIX
Nature of the assay: SPR, FIX immobilized on the sensor, knob in solution.

Sequence of recombinant human coagulation factor IX (human) (P00740 47-461 limits assumed): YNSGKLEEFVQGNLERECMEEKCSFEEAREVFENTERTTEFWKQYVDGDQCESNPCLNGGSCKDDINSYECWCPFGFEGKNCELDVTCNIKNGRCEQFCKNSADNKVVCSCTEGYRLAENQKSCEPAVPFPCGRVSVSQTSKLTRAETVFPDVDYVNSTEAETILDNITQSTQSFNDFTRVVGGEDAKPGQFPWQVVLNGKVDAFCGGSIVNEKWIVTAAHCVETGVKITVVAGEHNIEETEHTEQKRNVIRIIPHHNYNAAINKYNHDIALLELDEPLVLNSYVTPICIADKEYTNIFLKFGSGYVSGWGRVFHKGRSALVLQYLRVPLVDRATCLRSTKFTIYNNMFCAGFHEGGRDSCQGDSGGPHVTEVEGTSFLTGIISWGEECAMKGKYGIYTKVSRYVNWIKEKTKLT
T1 sequence (P00740 47-461 limits assumed): as above

As to “Ad5F* virus (long-shafted Ad5-based vector, fiber knob aa 477 Y to A, C-terminal 6-His) (from UniProt P11818 1-581)”, in assay [1], the reporter gene activities in HSPG-expressing CHO-K1 cells infected with FIX compared to infection without FIX was above 45 fold and the transduction of primary human hepatocytes (luciferase activity) with FIX compared to without is above 14 fold. For the molecule “Ad5/35L virus (Ad5 capsid, long Ad5 fiber shaft, Ad35 fiber knob domain) (from UniProt P11818 1-399)”, the reporter gene activities in HSPG-expressing CHO-K1 cells infected with FIX compared to infection without FIX in assay [1] was above 45 fold.

B1: purified recombinant Ad35 fiber knob domain (other)
chain: SINTLWTGINPPPNCQIVENTNTNDGKLTLVLVKNGGLVNGYVSLVGVSDTVNQMFTQKTANIQLRLYFDSSGNLLTEESDLKIPLKNKSSTATSETVASSKAFMPSTTAYPFNTTTRDSENYIHGICYYMTSYDRSLFPLNISIMLNSRMISSNVAYAIQFEWNLNASESPESNIATLTTSPFFFSYITEDDN
notes: also called Ad35 knob; biotin-conjugated Ad35 fiber knob domain
B1: the binding result in assay [2] is “binds”.

B2: purified recombinant Ad5 fiber knob domain (other)
chain: DKLTLWTTPAPSPNCRLNAEKDAKLTLVLTKCGSQILATVSVLAVKGSLAPISGTVQSAHLIIRFDENGVLLNNSFLDPEYWNFRNGDLTEGTAYTNAVGFMPNLSAYPKSHGKTAKSNIVSQVYLNGDKTKPVTLTITLNGTQETGDTTPSAYSMSFSWDWSGHNYINEIFATSSYTFSYIAQE
notes: also called Ad5 knob
In the case of B2, the binding result in assay [2] is “binds”.
